Assay results as given in IntAct's records for PubMed 15161910.

B1: Serine/threonine-protein kinase Nek2 (Homo sapiens), P51955 (parent)
chain: MPSRAEDYEVLYTIGTGSYGRCQKIRRKSDGKILVWKELDYGSMTEAEKQMLVSEVNLLRELKHPNIVRYYDRIIDRTNTTLYIVMEYCEGGDLASVITKGTKERQYLDEEFVLRVMTQLTLALKECHRRSDGGHTVLHRDLKPANVFLDGKQNVKLGDFGLARILNHDTSFAKTFVGTPYYMSPEQMNRMSYNEKSDIWSLGCLLYELCALMPPFTAFSQKELAGKIREGKFRRIPYRYSDELNEIITRMLNLKDYHRPSVEEILENPLIADLVADEQRRNLERRGRQLGEPEKSQDSSPVLSELKLKEIQLQERERALKAREERLEQKEQELCVRERLAEDKLARAENLLKNYSLLKERKFLSLASNPELLNLPSSVIKKKVHFSGESKENIMRSENSESQLTSKSKCKDLKKRLHAAQLRAQALSDIEKNYQLKSRQILGMR
partner: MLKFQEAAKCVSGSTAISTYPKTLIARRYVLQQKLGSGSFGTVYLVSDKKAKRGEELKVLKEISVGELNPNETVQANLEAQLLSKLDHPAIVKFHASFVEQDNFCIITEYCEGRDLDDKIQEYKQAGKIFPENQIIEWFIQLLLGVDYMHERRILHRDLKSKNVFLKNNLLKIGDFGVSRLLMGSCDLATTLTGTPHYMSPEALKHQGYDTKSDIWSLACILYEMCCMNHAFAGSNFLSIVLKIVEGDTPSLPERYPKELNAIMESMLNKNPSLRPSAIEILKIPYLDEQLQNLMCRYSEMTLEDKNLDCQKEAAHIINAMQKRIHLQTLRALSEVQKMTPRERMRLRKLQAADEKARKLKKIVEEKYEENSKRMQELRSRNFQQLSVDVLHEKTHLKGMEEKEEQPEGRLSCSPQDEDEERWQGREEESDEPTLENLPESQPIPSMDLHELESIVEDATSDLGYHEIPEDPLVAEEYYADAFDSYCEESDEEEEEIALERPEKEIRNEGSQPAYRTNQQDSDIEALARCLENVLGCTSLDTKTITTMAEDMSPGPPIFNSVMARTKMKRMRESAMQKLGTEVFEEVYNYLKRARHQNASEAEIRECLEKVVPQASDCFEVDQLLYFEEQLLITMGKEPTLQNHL

Variants of: B1
Conditions: with nek11_human NEK11, Q8NG66

Row | effect of a mutation on the interaction | Variant
1 | decreasing interaction | K37R

Variants of: B1
Conditions: with nek11_human NEK11, Q8NG66
Remark: another data set of the same source

Row | effect of a mutation on the interaction | Variant
2 | increasing interaction | K37R
